Source: patent US20210198369A1 (DRAGONFLY THERAPEUTICS, published 2021)
Where a chain is given by its changes, count along the chain named. Several values for one entry are separate records, joined by “and”; a condition that tells them apart may be missing. Equal values may be shown once.

T1: fusion protein of human NKG2D and murine Fc (human, UniProt P26718 78-216)
T1 construct: also called mFc-hNKG2D; not shown: murine Fc
T1 sequence (looked up): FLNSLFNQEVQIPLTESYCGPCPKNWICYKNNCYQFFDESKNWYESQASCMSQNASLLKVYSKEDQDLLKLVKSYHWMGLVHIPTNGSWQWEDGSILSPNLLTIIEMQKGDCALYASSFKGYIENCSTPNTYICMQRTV

B1: TriNKET A* (mutant form of TriNKET A having a substitution of Ile for the Met at position 102) (bispecific antibody, human IgG1)
heavy: EVQLVESGGGLVKPGGSLRLSCAASGFTFSSYSMNWVRQAPGKGLEWVSSISSSSSYIYYADSVKGRFTISRDNAKNSLYLQMNSLRAEDTAVYYCARGAPIGAAAGWFDPWGQGTLVTVSSASTKGPSVFPLAPSSKSTSGGTAALGCLVKDYFPEPVTVSWNSGALTSGVHTFPAVLQSSGLYSLSSVVTVPSSSLGTQTYICNVNHKPSNTKVDKKVEPKSCDKTHTCPPCPAPELLGGPSVFLFPPKPKDTLMISRTPEVTCVVVDVSHEDPEVKFNWYVDGVEVHNAKTKPREEQYNSTYRVVSVLTVLHQDWLNGKEYKCKVSNKALPAPIEKTISKAKGQPREPQVCTLPPSRDELTENQVSLTCLVKGFYPSDIAVEWESNGQPENNYKTTPPVLDSDGSFFLYSWLTVDKSRWQQGNVFSCSVMHEALHNHYTQKSLSLSPG
scFv: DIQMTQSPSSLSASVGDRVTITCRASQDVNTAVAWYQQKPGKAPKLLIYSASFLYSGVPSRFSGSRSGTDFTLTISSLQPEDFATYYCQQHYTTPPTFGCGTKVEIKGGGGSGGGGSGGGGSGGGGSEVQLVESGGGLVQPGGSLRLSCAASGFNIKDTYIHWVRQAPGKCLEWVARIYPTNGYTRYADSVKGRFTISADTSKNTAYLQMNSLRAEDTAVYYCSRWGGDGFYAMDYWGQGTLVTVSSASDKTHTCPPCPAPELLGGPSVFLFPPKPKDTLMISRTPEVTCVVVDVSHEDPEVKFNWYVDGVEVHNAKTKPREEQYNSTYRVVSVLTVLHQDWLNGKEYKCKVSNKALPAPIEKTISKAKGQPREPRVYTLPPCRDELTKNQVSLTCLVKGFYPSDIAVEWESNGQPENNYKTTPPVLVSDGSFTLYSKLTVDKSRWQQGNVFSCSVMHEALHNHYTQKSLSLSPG
light: DIQMTQSPSSVSASVGDRVTITCRASQGISSWLAWYQQKPGKAPKLLIYAASSLQSGVPSRFSGSGSGTDFTLTISSLQPEDFATYYCQQGVSFPRTFGGGTKVEIKRTVAAPSPPSDEQLKSGTASVVCLLNNFYPREAKVQWKVDNALQSGNSQESVTEQDSKDSTYSLSSTLTLSKADYEKHKVYACEVTHQGLSSPVTKSFNRGEC
notes: also called M102 variant
B2: A49-F3'-TriNKET-Trastuzumab (bispecific antibody, human IgG1)
heavy: B1 heavy with I102M
scFv: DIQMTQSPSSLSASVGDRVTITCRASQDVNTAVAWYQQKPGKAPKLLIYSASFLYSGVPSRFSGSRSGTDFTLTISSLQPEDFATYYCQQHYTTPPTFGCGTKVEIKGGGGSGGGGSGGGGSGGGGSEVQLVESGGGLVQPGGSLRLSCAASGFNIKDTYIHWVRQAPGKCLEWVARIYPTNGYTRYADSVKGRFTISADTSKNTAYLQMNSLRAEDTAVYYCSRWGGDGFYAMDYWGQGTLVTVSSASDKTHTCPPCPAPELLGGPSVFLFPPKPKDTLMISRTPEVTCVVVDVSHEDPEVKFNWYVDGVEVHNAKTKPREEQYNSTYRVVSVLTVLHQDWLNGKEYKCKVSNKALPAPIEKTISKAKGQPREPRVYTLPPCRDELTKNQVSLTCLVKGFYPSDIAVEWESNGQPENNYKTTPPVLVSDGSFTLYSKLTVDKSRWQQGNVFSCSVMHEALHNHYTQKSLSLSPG
light: B1 light
notes: also called TriNKET A; HER2-F3'-TriNKET-A49

Experiments:
[1] = target: T1, fusion protein of human NKG2D and …; experiment: SPR at 37 C, mFc-hNKG2D captured, TriNKET as analyte, steady state affinity fit
Source text: (§1) Steady state affinity fit was utilized to obtain the equilibrium affinity data.

[2] = target: T2, HER2 (ErbB2) expressed on human cells (SkBr-3, NCI-H661, 786-O cancer cells; human cardiomyocytes) (human, UniProt P04626 23-1255); experiment: cell-based or functional assay
[3] = target: T1, fusion protein of human NKG2D and …; experiment: SPR at 37 C, steady state affinity fit, average of two independent experiments
Source text: as §1

[4] = target: T1, fusion protein of human NKG2D and …; experiment: SPR at 37 C, mFc-hNKG2D captured, TriNKET as analyte, steady state affinity fit; reference TriNKET A
Source text: as §1

[5] = target: T2, HER2 (ErbB2) expressed on human cells …; experiment: flow cytometry on SKBR3 cells, anti-human IgG secondary, fold over background (control TriNKET)
Method: (§2) TriNKETs were diluted to 3.8e-4 to 100 μg/mL, and the dilutions were used as primary antibody stain. Binding of the TriNKET was detected using a fluorophore-conjugated anti-human IgG secondary antibody. Cells were analyzed by flow cytometry. Binding fluorescence intensity (MFI) to cells expressing HER2 was normalized to cells stained with a control (non-specific) TriNKET to obtain fold over background (FOB) values.

[6] = target: T2, HER2 (ErbB2) expressed on human cells …; experiment: flow cytometry on SkBr-3 cells, anti-human IgG secondary, fold over background (secondary only)
Method: (§3) All three cell lines were used to assess their binding affinity to TriNKET. TriNKETs were diluted in a series of concentrations, and were incubated with the respective cells.

[7] = target: T1, fusion protein of human NKG2D and …; experiment: SPR at 37 C, steady state affinity fit, average of three independent experiments
Source text: as §1

[8] = target: T2, HER2 (ErbB2) expressed on human cells …; experiment: flow cytometry on human cardiomyocytes, anti-human IgG secondary, fold over background (control TriNKET)
Method: as §2

[9] = target: T2, HER2 (ErbB2) expressed on human cells …; experiment: flow cytometry on H661 cells, anti-human IgG secondary, fold over background (control TriNKET)
Method: as §2

[10] = target: T2, HER2 (ErbB2) expressed on human cells …; experiment: flow cytometry on SkBr-3 cells, anti-human IgG secondary, % of maximum MFI
Method: as §3

Binder	Kd [1]	EC50 (nM), % specific lysis of SKBR-3 target cells by KHYG-1-CD16V cells (DELFIA) [2] [nM]	Kd [3] [nM]	fold reduced affinity compared to TriNKET A [4] [fold]	EC50 (read off the curve) [5] [µg/mL]	EC50 (read off the curve) [6] [nM]	Kd [7] [nM]	EC50 (read off the curve) [8] [µg/mL]	EC50 (read off the curve) [9] [µg/mL]	EC50 (read off the curve) [10] [nM]
B1	509 nM and 454 nM	0.65	481	< 2						
B2	370 nM and 328 nM and 313 nM	0.39			~0.3	~10	337	~0.4	~0.3	~10
